This is an account of results in the supplement of paper PMC12042874.

± gives the uncertainty stated by the source.

The data set can be described thus: amyloid nucleation score (Sup35N fusion, yeast selection) (log enrichment); library NNK2; higher = more nucleation; inactive = no reads after selection. The procedure, abridged:
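The nucleation score, computed with DiMSum, is the log enrichment of output over input reads, centred on the mode score of non-aggregating sequences. Sequences with under 100 input reads were dropped. Reads were generated by Illumina sequencing of plasmid inserts from psi-negative yeast with Sup35N fused to peptides of 20 random codons, induced with 100 μM copper sulfate for 24 hours and grown 7 days at 30°C on medium lacking adenine and uracil.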
With HHFTFQAAYFRNIPLESADE, the amyloid nucleation score is 0.906 ± 0.23.

SMYVDVFLRFGSWLHSFT: the amyloid nucleation score is -0.127 ± 0.74.

For the substance LSGFKYWLRWL, the amyloid nucleation score result is “inactive”.

As for SFSCNNSLDYKGNFS, the amyloid nucleation score worked out at 1.48 ± 0.18.

Consider ALQDMTI, for which the amyloid nucleation score is -0.176 ± 0.36.

For the substance NPTWVRCYWHFWFTVNGFQY, the amyloid nucleation score is -1.17 ± 1.1.

The substance CNVLSRRNGKLRACFS returned an amyloid nucleation score of 0.732 ± 0.4.

Take RVCPVSG: the amyloid nucleation score is -0.068 ± 0.79.

FCGFMGTAPHMRPYVMPWLR: the amyloid nucleation score was 0.816 ± 0.46.

Regarding RLMTVI, the amyloid nucleation score was -0.229 ± 0.28.

Turning to GFFVVISGRMKVYVQGKSWL, the amyloid nucleation score is -0.325 ± 0.56.

As for LPIPIKETHLSCWAVDVGFD, the amyloid nucleation score is -0.052 ± 0.2.

In the case of PRWGRTMGCFSFRDPCRVTG, the amyloid nucleation score was -0.277 ± 0.35.

In turn, SVRNNLAVGDKLFNVTADCN returned an amyloid nucleation score of 0.168 ± 0.8.

Consider LSALCGIGCDCLPTLTKLIV, for which the amyloid nucleation score is -0.089 ± 0.25.

As for NVAMSCPRGRVPR, the amyloid nucleation score was 1.35 ± 0.38.

For FVSGRVQLQASGLVRGNRWV, the amyloid nucleation score result was “inactive”.

As to LPGSYNYKGSHSQTNWFLDK, the amyloid nucleation score is -2.09 ± 1.

LRRASINCKMLGGDVGQVMW came in with an amyloid nucleation score of 0.404 ± 0.66.

Substance IRMGRANRWEVLARWTSVVA showed an amyloid nucleation score of 9.548 ± 0.079.

CYFSDPVHLENPSINSISFW: the amyloid nucleation score result was “inactive”.

For the substance FSLFISKMN, the amyloid nucleation score is -0.474 ± 1.

In the case of RLFANASGVDMEGTGYNRSD, the amyloid nucleation score came to 0.359 ± 0.4.

As for GSTKFSRDERIAEGGNRGNK, the amyloid nucleation score was -0.007 ± 0.3.

For the substance VNSNINFMEGYGCFKKIVNF, the amyloid nucleation score was -1.36 ± 0.75.

The substance KLGTLLSFPTVINVANMIQI had an amyloid nucleation score of 3.8 ± 0.081.

Turning to TPAWQLYGHTVLAGVQKNMV, the amyloid nucleation score was -0.077 ± 0.37.

Consider SYSVQAALVCVFGGCNHVGS, for which the amyloid nucleation score is 9.383 ± 0.048.

Turning to CLGNHIDSCVVFLTDAESSS, the amyloid nucleation score was -0.484 ± 0.65.

In the case of SSQFR, the amyloid nucleation score was 0.705 ± 0.44.

For the substance TSWSLVVVKVDIWPNQSVWV, the amyloid nucleation score is -0.391 ± 0.55.

As to SHILSNVTYGLADVAFCACS, the amyloid nucleation score was 7.542 ± 0.067.

Turning to LMRLDLGT, the amyloid nucleation score was -0.518 ± 0.32.

Regarding EYCACTFDWWGYQGCCD, the amyloid nucleation score was -1.04 ± 0.63.

For MAILYVVGWFVP, the amyloid nucleation score is 0.148 ± 0.28.

Substance DLRIREMDLGNWSWASR registered an amyloid nucleation score of 0.653 ± 0.23.

Consider GEQYATGLP, for which the amyloid nucleation score came to 5.514 ± 0.039.

For SNGCQTRADGLTECDICKPS, the amyloid nucleation score amounted to 0.33 ± 0.24.

Turning to NRHPRRYRNNAGDDSLMRIL, the amyloid nucleation score is 1.74 ± 0.096.

TYKEYCGE: the amyloid nucleation score is -0.693 ± 0.78.

In turn, NVRSWYLDNLFLTFAVA yielded an amyloid nucleation score of 0.164 ± 0.63.

As for FILVYTRPTLESLGEWWIRC, the amyloid nucleation score is -0.628 ± 0.63.

Consider SKFVSKSEV, for which the amyloid nucleation score was -0.983 ± 1.1.

CNSCSP came in with an amyloid nucleation score of 0.811 ± 0.67.

In the case of FSCFIIYVGQKTACNSNTAL, the amyloid nucleation score is 4.57 ± 0.08.

Regarding FMARRNVAYILEYIIVYRF, the amyloid nucleation score is -0.735 ± 0.64.

Regarding YLWPALPR, the amyloid nucleation score was 0.142 ± 0.46.

Turning to MSKDTVMPWERIKEVLHCLG, the amyloid nucleation score came to 0.342 ± 0.3.

As for SAPRNNVATLTEHLERLVLR, the amyloid nucleation score was -0.767 ± 0.76.

On to TAKDTPCAVRIIFEFLDGLV, for which the amyloid nucleation score was 7.279 ± 0.056.

In turn, HVIVMYGSIY came in with an amyloid nucleation score of 3.19 ± 0.12.

For the substance TDMWPVYANRVFYNMSWSRP, the amyloid nucleation score entry was “inactive”.

YTVLWRCTFTKARVFGCVSL showed an amyloid nucleation score of 0.414 ± 0.51.

In the case of SVVFDYCSGIVSRY, the amyloid nucleation score is -0.483 ± 1.1.

As for HGVLVIVRAYVHVGEWVAQL, the amyloid nucleation score amounted to 1.96 ± 0.4.

On to YNYLLLSMVPSSILSRSYVQ, for which the amyloid nucleation score is -0.161 ± 1.1.

With VMRMWRVSMRF, the amyloid nucleation score was determined as 6.068 ± 0.032.

As to PIKCDRSFWRR, the amyloid nucleation score worked out at 1.49 ± 0.22.

In turn, SPYAFACAGCSGVKG gave an amyloid nucleation score of 0.234 ± 0.26.

As to YDANLRLYSYSRTQLFSSWS, the amyloid nucleation score came to 3.83 ± 0.088.

Consider FQDWCHREYYLRLREVSLGG, for which the amyloid nucleation score entry is “inactive”.

LVDFNVLYNAGIIRLHTERY yielded an amyloid nucleation score of 8.048 ± 0.07.

The substance SYGFQVLDAKDVLMLAFVWA gave an amyloid nucleation score of 0.255 ± 1.1.

As for HSLVTDEASCLTDRGHVGQV, the amyloid nucleation score was found to be 1.22 ± 0.27.

Substance GMTEWVGLAQERIYAWAKSE gave an amyloid nucleation score of 0.517 ± 0.36.

Substance SRGISKVTWP came in with an amyloid nucleation score of 0.276 ± 0.28.

Turning to DNLSGMIPTKTVDSSRP, the amyloid nucleation score is 0.611 ± 0.81.

Consider FKLFMLSSFSLMM, for which the amyloid nucleation score was found to be 0.182 ± 1.1.

As to RWHFDYRVKQV, the amyloid nucleation score was -0.058 ± 0.37.

In the case of NYRFVCWDYISWVMVWTSI, the amyloid nucleation score result was “inactive”.

PYGVSPWVRVVSCSIEGNWT: the amyloid nucleation score is -0.289 ± 0.25.

In the case of TSYKVVLVTYRT, the amyloid nucleation score was determined as 5.81 ± 0.074.

As for FLSINISISRVLLSDCTS, the amyloid nucleation score stood at 3.05 ± 0.12.

In the case of GTSVIHISYFIYYPGDRVRR, the amyloid nucleation score was determined as 6.811 ± 0.052.

Turning to FLYLNAKSVRASIVWYEVKL, the amyloid nucleation score was found to be 8.232 ± 0.048.

As to VWDNIVPPQLISRRS, the amyloid nucleation score was -0.813 ± 1.1.

For the substance PSRLRYITICRVPGAMSDVN, the amyloid nucleation score was found to be 0.268 ± 0.27.

Turning to IAAVDENCRVVCQIIFLSKV, the amyloid nucleation score entry is “inactive”.

The substance GVIVCTWPRPRDCS had an amyloid nucleation score of 0.72 ± 0.58.

Turning to RAFYLVTSPDFYFCRILGAT, the amyloid nucleation score result is “inactive”.

Turning to RVRDYSYGGSQRLGGYMLG, the amyloid nucleation score is -0.64 ± 0.61.

In the case of FYSVHSCLYVLIHRVQHACC, the amyloid nucleation score was -0.235 ± 1.1.

In the case of INWCSDMHNCVCLTIGQWLV, the amyloid nucleation score was 3.36 ± 0.16.

Consider EIFFKCGFLLLGCDRPGRVR, for which the amyloid nucleation score worked out at 0.413 ± 0.43.

With RFNVLRIGPLSHLQGWEHPT, the amyloid nucleation score was -0.632 ± 0.63.

Regarding VVFRIVNRACVMYGVTGGND, the amyloid nucleation score was -0.915 ± 0.63.

In turn, FLFFGVGMMCEARDAPMVAF yielded an amyloid nucleation score of 0.073 ± 1.1.

On to VLMYIWDLVGGSLSFKKVLF, for which the amyloid nucleation score result was “inactive”.

For IMDLAKVCEGVLSSGRVALI, the amyloid nucleation score turned out to be 0.096 ± 0.29.

On to KWKLMCDAFLS, for which the amyloid nucleation score is -0.969 ± 0.48.

As for VVNDIATLLRVMNEYYAESA, the amyloid nucleation score is -0.531 ± 0.79.

With VYGCGSCLNCVVCMERCG, the amyloid nucleation score amounted to 9.094 ± 0.048.

As to KPIVITLLLSDCVRM, the amyloid nucleation score amounted to 9.498 ± 0.026.

Regarding STSWGSRSVDCC, the amyloid nucleation score is -0.609 ± 0.25.

In the case of IRVNMSVTITRGWICHRLCK, the amyloid nucleation score was 0.293 ± 0.27.

As to SILLLIKVYFWGLCNPMILA, the amyloid nucleation score is -1.65 ± 1.

The substance FAIDMRYVGGQGCCILYIRR came in with an amyloid nucleation score of 0.075 ± 0.44.

For MQLNNG, the amyloid nucleation score came to 0.075 ± 0.21.

For the substance TVAKSLVYLSVCQVAA, the amyloid nucleation score was determined as 0.035 ± 1.

TPSDLVDINMDHAFCELCRR gave an amyloid nucleation score of 0.413 ± 0.45.

As for EMYRCGWCLWMHNRLTATVR, the amyloid nucleation score turned out to be 1.86 ± 0.28.

For the substance DVKWPYRLDFVKLYYIYKEG, the amyloid nucleation score is -1.88 ± 0.53.

In the case of PEQAVFTNNKYIYEVWLTTK, the amyloid nucleation score result is “inactive”.

With DYTSCEDVLSVVRPWNYNVE, the amyloid nucleation score is 0.714 ± 0.47.

HIIASCTV came in with an amyloid nucleation score of 1.18 ± 0.38.

In the case of CVGDAALWWVVFIYGEHSRV, the amyloid nucleation score came out at 0.022 ± 0.41.

With VILAIGNFSRI, the amyloid nucleation score amounted to 3.08 ± 0.081.

Substance RVLSGRLTTNVDARGCELDR registered an amyloid nucleation score of 1.3 ± 0.29.

IFHVIVWLFEDAFVQVQNYR came in with an amyloid nucleation score of 4.29 ± 0.078.

With LSRSDAVRAFFRIMVLWKVV, the amyloid nucleation score was -0.32 ± 0.63.

Regarding WFHVITFFLGASCIMWTKTR, the amyloid nucleation score result was “inactive”.

Turning to GFGLPTGEVVTNNMALGKTE, the amyloid nucleation score is -0.844 ± 0.49.

As for PHQKSAY, the amyloid nucleation score is -0.284 ± 0.79.

On to VYCFNSRSNFHTLMLSSGYG, for which the amyloid nucleation score was -0.594 ± 0.55.

In the case of ESILKHSMPSYGFFLF, the amyloid nucleation score result was “inactive”.

In the case of SSCYSVLGMRL, the amyloid nucleation score entry is “inactive”.

Regarding RSAYNY, the amyloid nucleation score was -0.844 ± 0.4.

In turn, AMSPGTVKRFGLLVALFQY had an amyloid nucleation score of 0.867 ± 0.74.

RMRQASEAKSLGGPIGRQGL returned an amyloid nucleation score of 1.2 ± 0.15.

Take IYYNGFVQCGLLIEGLITSY: the amyloid nucleation score came out at 2.39 ± 0.092.

With KYRYRLVQR, the amyloid nucleation score was -0.656 ± 1.1.

AYYSVSC returned an amyloid nucleation score of 3 ± 0.11.

Take EDCVMISTCNFLFTINVLEA: the amyloid nucleation score came to 6.38 ± 0.065.

With YRYAASVPKCNTGSRDVAQT, the amyloid nucleation score was found to be 0.942 ± 0.35.

Take HTVTKVTLRLVCTMGCFKMM: the amyloid nucleation score came out at 0.135 ± 0.65.

Consider VVSSGLHHRLLLCRIEGA, for which the amyloid nucleation score turned out to be 0.526 ± 0.26.

For the substance FMNANRRVKKGQRVKRWTYS, the amyloid nucleation score was 0.045 ± 0.79.

For the substance SQCFERV, the amyloid nucleation score stood at 0.637 ± 0.36.

In turn, CKAIFFLLDPPTFIYRGSSC registered an amyloid nucleation score of 0.079 ± 0.57.

Turning to MGGGNCLVRFKRYEFPFDIP, the amyloid nucleation score is -1.61 ± 0.54.

With GECHEWV, the amyloid nucleation score was -0.837 ± 1.1.

Turning to VVRAVYGYQFYGIVL, the amyloid nucleation score came to 0.648 ± 0.25.

Take FHPPTGPPYINEMIGASTDR: the amyloid nucleation score was -0.069 ± 0.27.

VGRQSCFVYMWCWTYHMWGL: the amyloid nucleation score was found to be 1.37 ± 0.32.

In turn, SVDYLCFVFNGGRSSSECQY came in with an amyloid nucleation score of 7.755 ± 0.032.

With YLGCRDPTRCFLLVHVPDLY, the amyloid nucleation score was -0.127 ± 1.

Take IFEAVVRVG: the amyloid nucleation score entry was “inactive”.

Consider SDPLSFGFGQMWIGVHNEFY, for which the amyloid nucleation score amounted to 2.2 ± 0.16.

Turning to SEMDPNKAMRIGW, the amyloid nucleation score was found to be 0.174 ± 0.21.
